Test results published in patent US20230227838A1, “ENHANCED CELL SURVIVAL AGAINST BIOTIC AND ABIOTIC STRESSES THROUGH SALICYLICK ACID-INDUCED NPR1 CONDENSATES” (priority 2020, published 2023).

B1: BSL2, BRI1 suppressor 1 (BSU1)-like 2 (protein, UniProt Q9SJF0 1-1018, looked up)
Serine/threonine-protein phosphatase BSL2: MDEDSSMVADNDQDREFQSLDGGQSPSPMERETPQQMNDQSPPPEGGSVPTPPPSDPNPATSQQQAAAVVGQEQQPALVVGPRCAPTYSVVDAMMDKKEDGPGPRCGHTLTAVPAVGDEGTPGYIGPRLVLFGGATALEGNSGGTGTPTSAGSAGIRLAGATADVHCYDVLSNKWTRLTPFGEPPTPRAAHVATAVGTMVVIQGGIGPAGLSAEDLHVLDLTQQRPRWHRVVVQGPGPGPRYGHVMALVGQRYLMAIGGNDGKRPLADVWALDTAAKPYEWRKLEPEGEGPPPCMYATASARSDGLLLLCGGRDANSVPLASAYGLAKHRDGRWEWAIAPGVSPSSRYQHAAVFVNARLHVSGGALGGGRMVEDSSSVAVLDTAAGVWCDTKSVVTSPRTGRYSADAAGGDASVELTRRCRHAAAAVGDLIFIYGGLRGGVLLDDLLVAEDLAAAETTYAASHAAAAAATNSPPGRLPGRYGFSDERNRELSESAADGAVVLGSPVAPPVNGDMHTDISPENALLPGTRRTNKGVEYLVEASAAEAEAISATLAAAKARQVNGEVELPDRDCGAEATPSGKPTFSLIKPDSMGSMSVTPAGIRLHHRAVVVAAETGGALGGMVRQLSIDQFENEGRRVSYGTPESATAARKLLDRQMSINSVPKKVIAHLLKPRGWKPPVRRQFFLDCNEIADLCDSAERIFASEPTVLQLKAPIKIFGDLHGQFGDLMRLFDEYGSPSTAGDISYIDYLFLGDYVDRGQHSLETISLLLALKVEYQHNVHLIRGNHEAADINALFGFRIECIERMGERDGIWVWHRINRLFNWLPLAASIEKKIICMHGGIGRSINHVEQIENIQRPITMEAGSIVLMDLLWSDPTENDSVEGLRPNARGPGLVTFGPDRVMEFCNNNDLQLIVRAHECVMDGFERFAQGHLITLFSATNYCGTANNAGAILVLGRDLVVVPKLIHPLPPALSSPETSPERHIEDTWMQELNANRPATPTRGRPQNSNDRGGSLAWM
B2: NIMIN1 (protein, UniProt Q9FNZ5 1-142, looked up)
Protein NIM1-INTERACTING 1: MYPKQFSLYNYSLETMSKDENVESKETIRVDKRVREDEEEEEEKKIDTFFKLIKHYQEARKRRREELAENSGVVRRKSNGGERSGIVVPAFQPEDFSQCRTGLKPPLMFVSDHKEENTKVEQEEDQTEERNEDKALDLNLAL
B3: ATMEK4, ATMKK4, MKK4, mitogen-activated protein kinase kinase 4 (protein, UniProt O80397 1-366, looked up)
Mitogen-activated protein kinase kinase 4: MRPIQSPPGVSVPVKSRPRRRPDLTLPLPQRDVSLAVPLPLPPTSGGSGGSSGSAPSSGGSASSTNTNSSIEAKNYSDLVRGNRIGSGAGGTVYKVIHRPSSRLYALKVIYGNHEETVRRQICREIEILRDVNHPNVVKCHEMFDQNGEIQVLLEFMDKGSLEGAHVWKEQQLADLSRQILSGLAYLHSRHIVHRDIKPSNLLINSAKNVKIADFGVSRILAQTMDPCNSSVGTIAYMSPERINTDLNQGKYDGYAGDIWSLGVSILEFYLGRFPFPVSRQGDWASLMCAICMSQPPEAPATASPEFRHFISCCLQREPGKRRSAMQLLQHPFILRASPSQNRSPQNLHQLLPPPRPLSSSSSPTT
B4: LURP1, Protein of unknown function (DUF567) (protein, UniProt Q9ZQR8 1-207, looked up)
Protein LURP1: MQQPCVIVGSKYCSPNPVGLAIVRKVMKITDGNFVITSADGKLLFKVKDPLFSLHGKRILLDCSGAKVLTLRGKMMTMHDRWQVFRGGSTEEGALLYTVKRSSMIQLAPKLEVFLANNVEEKICDFKVKGAWLDDSCVVYAGDSDTIIAHMCGKQTMRGFFFGKDHFSVTVDKNVDYAFIASLIVILVEIEKAGFITKMTTQMIIGF
B5: AtHSBP, HSBP, heat shock factor binding protein (protein, UniProt Q8GW48 1-86, looked up)
Heat shock factor-binding protein: MDGHDSEDTKQSTADMTAFVQNLLQQMQTRFQTMSDSIITKIDDMGGRINELEQSINDLRAEMGVEGTPPPASKSGDEPKTPASSS
B6: PNG1, peptide-N-glycanase 1 (protein, UniProt Q9FGY9 1-721, looked up)
Peptide-N(4)-(N-acetyl-beta-glucosaminyl)asparagine amidase: MVARKFVVRHEDSSFDVDYNTEDGLEVLRFLIFSLTLVPPEEQKIVAEDDNRLVSDESDLASLSERLRLVSVGEDSVENSDAEMLKSDEELARMLQAEEDAIMFQQFVAARDNGEFEGRIRPYVSQVLMYEDPVRQDAARKTVPKDELEEKALVSLAKEGNFEPSKEERDYAFLLQLLFWFKKSFRWVNEPPCDFCGNKTIGQGMGNPLTSELAYGANRVEIYRCTMCPTTTRFPRYNDPLKLVETKKGRCGEWANCFTLYCRTFGYDSRLIMDFTDHVWTECYSHSLKRWIHLDPCEGVYDKPMLYEKGWNKKLNYVIAISKDGVCDVTKRYTKKWHEVLSRRTLTTESSLQDGLRTLTRERRRSLMFESLSKLELRDRNEQEELERNLHSADNASVSLPGRQSGDREWRIMRSEFGSDENSSVSSSSCPVRKCVDDHVTNIYDSFLPILTQFVEDGLPVARTNEVLKMIKQVLVDLKNAPYKTRKARLTLDSDNSSSFPEQFLPALGDLLLALSLKSERDTNGKSVTISVDGKLTKTAIALPVALDALRELVADLSKYQNLNKDSLSFPLVKQNRVCSGSVLASGEELPSGIATAAFDGIQESKWEEPNGAKGCWIVYKTLYNQMHQLIAYELMSANDAPERDPKDWILEGSNDGGSTWCVLDKQTSQVFEERFQRKSYKITTPGFQANLFRFRFLSVRDVNSTSRLQLGSIDLYRSHQ
B7: MEK1 (protein, UniProt Q94A06 1-354, looked up)
Mitogen-activated protein kinase kinase 1: MNRGSLCPNPICLPPLEQSISKFLTQSGTFKDGDLRVNKDGIQTVSLSEPGAPPPIEPLDNQLSLADLEVIKVIGKGSSGNVQLVKHKLTQQFFALKVIQLNTEESTCRAISQELRINLSSQCPYLVSCYQSFYHNGLVSIILEFMDGGSLADLLKKVGKVPENMLSAICKRVLRGLCYIHHERRIIHRDLKPSNLLINHRGEVKITDFGVSKILTSTSSLANSFVGTYPYMSPERISGSLYSNKSDIWSLGLVLLECATGKFPYTPPEHKKGWSSVYELVDAIVENPPPCAPSNLFSPEFCSFISQCVQKDPRDRKSAKELLEHKFVKMFEDSDTNLSAYFTDAGSLIPPLAN
B8: ATCHR12, Homeotic gene regulator (protein, UniProt F4J9M5 1-1102, looked up)
Probable ATP-dependent DNA helicase CHR12: MVAQQLQERCGGTSQEDPVETTKSLICALNYISRDLPLPPHLFTAVSSIYHGASSSSLSDSDVSPPLPTSPPANKAPYGADLMGEFEDALLKQRPDCESGSRLIQLLDNRNKSHIQRRLSELEELPSTRGEDLQAKCLLELYGLKLRELQGKVRTAVSSEFWLRLNCADVSSQVFDWGMMRLPRPFYGVGDPFAMEADDQFRKKRDAERLSRLEEEEKNLIETAKRKFFAEVLNAVREFQLQIQATQKRRRQRNDGVQAWHGRQRQRATRAEKLRLMALKSDDQEAYMKLVKESKNERLTTLLEETNKLLANLGAAVQRQKDAKLPEGIDLLKDSESDLSELDAPRSEPLQDLLPDQDIDITESDNNDDSNDLLEGQRQYNSAIHSIQEKVTEQPSLLEGGELRSYQLEGLQWMVSLFNNNLNGILADEMGLGKTIQTISLIAYLLENKGVPGPYLIVAPKAVLPNWVNEFATWVPSIAAFLYDGRLEERKAIREKIAGEGKFNVLITHYDLIMRDKAFLKKIEWYYMIVDEGHRLKNHESALAKTLLTGYRIKRRLLLTGTPIQNSLQELWSLLNFLLPHIFNSVQNFEEWFNAPFADRGNVSLTDEEELLIIHRLHHVIRPFILRRKKDEVEKFLPGKTQVILKCDMSAWQKVYYKQVTDMGRVGLQTGSGKSKSLQNLTMQLRKCCNHPYLFVGGDYNMWKKPEIVRASGKFELLDRLLPKLRKAGHRILLFSQMTRLIDVLEIYLTLNDYKYLRLDGTTKTDQRGLLLKQFNEPDSPYFMFLLSTRAGGLGLNLQTADTVIIFDSDWNPQMDQQAEDRAHRIGQKKEVRVFVLVSVGSVEEVILERAKQKMGIDAKVIQAGLFNTTSTAQDRREMLEEIMRKGTSSLGTDVPSEREINRLAARSEDEFWMFERMDEERRRKENYRARLMQEQEVPEWAYTTQTQEEKLNNGKFHFGSVTGKRKRKEIVYSDTLSELQWLKAVESGEDLSKLSMRYNRREENASNTKTSTSKKVIESIQTVSDGTSEEDEEEQEEERAKEMSGKQRVDKSEEEEEEGEEENDGKAIFKWNTHKKKRSRYSFTCSSSDSRAQSSNGSRRK

The binders below were run against sim3-GFP (Arabidopsis thaliana) (UniProt P93002) (assay: sim3-GFP IP, LC-MS/MS).
Chain of sim3-GFP (Arabidopsis thaliana) (P93002 other isoform, or with tags, fused parts or gaps): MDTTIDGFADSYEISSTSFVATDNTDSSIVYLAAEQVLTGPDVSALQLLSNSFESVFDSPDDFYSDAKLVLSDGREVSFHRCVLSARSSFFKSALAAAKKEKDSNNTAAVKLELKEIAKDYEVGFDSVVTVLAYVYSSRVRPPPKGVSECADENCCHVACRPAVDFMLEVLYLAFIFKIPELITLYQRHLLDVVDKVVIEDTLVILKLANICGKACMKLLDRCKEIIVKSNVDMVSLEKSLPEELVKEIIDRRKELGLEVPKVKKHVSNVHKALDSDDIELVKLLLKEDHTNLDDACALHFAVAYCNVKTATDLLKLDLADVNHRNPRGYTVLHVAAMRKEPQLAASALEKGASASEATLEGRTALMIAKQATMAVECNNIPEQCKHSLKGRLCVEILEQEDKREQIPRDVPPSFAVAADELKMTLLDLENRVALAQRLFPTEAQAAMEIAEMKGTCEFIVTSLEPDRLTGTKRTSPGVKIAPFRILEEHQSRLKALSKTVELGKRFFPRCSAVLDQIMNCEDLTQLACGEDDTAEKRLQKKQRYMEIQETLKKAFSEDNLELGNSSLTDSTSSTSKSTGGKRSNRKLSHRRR

Binder	Normalized Fold Change: SA vs Mock
B1	2.07 fold
B2	17.7 fold
B3	2.62 fold
B4	4.63 fold
B5	6.22 fold
B6	3.13 fold
B7	4.03 fold
B8	9.34 fold
